B1: TPR t1 (parent)
chain: GACCAAUCUGCCCUCAGAGCUCGAGAACAUCUUCGGAUGCAGAGGAGGCAGGCUUCGGUGGCGCGAUAGCGCCAACGUCCUCAACCUCCAAUGCAUCCCACCACAUGAUGAUGCCUGAAGAGCCUUGGUUUUUUG

Variants of: B1
Assay: polymerase ribozyme fitness, log enrichment relative to wild type (log ratio); higher = more active; in vitro selection for triplet polymerase activity
Procedure, shortened: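 Mutant libraries for each subunit of a heterodimeric triplet polymerase ribozyme were made by PCR and then transcribed. Each library underwent one round of in vitro selection in triplicate: annealing with a biotinylated primer, the partner subunit and triplets, frozen incubation at −7 °C, gel excision of extended constructs, streptavidin-bead capture and RT-PCR. Input and output libraries were Illumina-sequenced, and only genotypes with ≥10 input reads and ≥1 read per output were kept. Fitness is the logarithm, base 2, of genotype enrichment over wild-type enrichment, computed from inverse-variance-weighted replicate averages.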

Variant | polymerase ribozyme fitness (log ratio)
A6U G71A A83G | -1.85
A6U C40U C123A | 0.808
A5U G19A G69U C72G U112G | -3.83
A6U G42C C73G | -2.29
A5G G60A | -0.271
A5U C22A U112A | -2.64
A5U G47A C101U | -1.94
A6U G17U U112A G120A | -3.9
A6U C8U G48U | -0.267
A5U C115U | -1.6
A6U C11G | 0.392
A6U C8G C73G C88A U92G C98A G113U | -6.38
A6C C53G G57A C73A C79G G113C | -4.89
A6C A18C G60U C82G G127U | -5.44
A6U G17C U130A | -4.89
A6C C12A U54G | -1.08
A6U C115U | -1.06
A6U C102A G128A | -4.03
A6U C102A C123G | -0.023
A6U C8G C34U C53U C82U A84C | -4.3
A5U G36C | -1.42
A6U G10U C12U C15G C72G C86A | -3.18
A5U U7A C15A G44A C56A G60A | -3.35
A6U G63C C80U G93C U106A | -3.58

Variant | polymerase ribozyme fitness (log ratio)
A6C G93C A121G G127C | 0.208
A6C U9A C15G G45A C62U C104A C124G | -3.99
A6C G77A | -0.571
A6G G48C C72A | 0.333
A6U A90U C114A U116G | -3.49
A6C C40U G44A A121U | 0.36
A5U C11G A16U G60U A103C | -5.34
A6G G48U G52C C73G | -3.58
A6U C98U U112G | -3.5
A5U G10A C15A C70U C79A C94U C99U C124U | -7.66
A6U G51U C70U C80U G93U | -5.12
A6U A27U A46C G48A C53G C79G C82G G110C | -6.9
A5G U32G A50C C101U G113C C114U U131C | -5.64
A5G U133A | -0.954
A6G G71A G120C | 0.128
A6U C11A C12U A37G G61A | -1.24
A5U G19A A41U C94A C104U | -3.89
A5U G44A C56A C124A G128U U132G U133C | -2.5
A6U C53U G69U G128C | -0.945
A6U C20U U21G G69C A121U | -0.95
A6U C72A | 0.375
A5U C13U A37U G44C U78G C98U | -4.45
A6C G47A C123U U125A | -0.223
A6U G10C C12A U87A | -0.928

Variant | polymerase ribozyme fitness (log ratio)
A6C C13A A37U C82U | -2.7
A5U G60C U96A C101A A119U | -2.53
A5U C49G G51A A74U C82A | -4.76
A5U G10A A41G G61A C101U U133G | -0.742
A5G U54G G69U | -0.999
A5U G117C | -2.92
A6C G52A U81C A121C C123A | -0.955
A6C A50C U59C C72U U92G | -4.39
A6G G63U C73G C102A G110U C115G | -6.75
A6U G25A C56A C73A C79G C94U G113U C124A | -8.13
A6C G113A | -1.23
A6G G71C A118U | -0.254
A6C A37C A111U | -3.49
A6C C11A | -2.65
A6G C11U | -0.107
A6G U54C A66G C80U | -2.2
A6U C15A C56A A105C | -4.85
A6G C8A | -0.14
A6U C28G C72U C102U A103C | -7.04
A6C G44A G61U | -0.646
A6G G10U C56U C94U G135U | -1.99
A5G G10U C72G C86U C97U C114A | -3.98
A6U G61U | -0.0436
A6U C11U U55G A83U U106A G128U U130C | -1.47

Variant | polymerase ribozyme fitness (log ratio)
A6C C53G | -0.863
A5U G17C G23A C115G U131C | -5.42
A5G U54C G69C A118G U129A | -2.84
A6G A37U C72A C73U G117U C124A | -0.937
A6U C80A A95U G120A U130G | -3.72
A5U A43G C102A U116C | -5.9
A6U C56G U129A | -2.48
A5U U130G | -0.49
A6U C20U A37U G61A | -0.862
A6G C8A U9G | 0.0967
A6C C73G | -0.957
A6G C11G G57U | 0.178
A6G C49U G60C G135U | -2.21
A6C C70U U129A | -2.82
A6G G47U G71A | -2.24
A5U C73U G122A U129A | -2.07
A6U A26G C79U | -2.88
A5U C62G | -1.69
A6G C13A G17A A95G | -3.46
A5G U54C G69U A118G U129A | -1.19
A5U C20G A121C C123U | -3.97
A6U G58A U81A G110A A118C | -2.44
A6U C13G C56U G77C | -1.6
A6C C85U C101U G110U | -3.01

Variant | polymerase ribozyme fitness (log ratio)
A5G G36A C53G C73U C80A C82G | -1.5
A6C G71A G93C C99U C123A U130A | -7.12
A5U C70U C89U G110U | -2.97
A5U G44A A46U C56U U126G U133A | -2.99
A6U C22A C49U C72U | -5.16
A6U C56A C94A U106A C124A | 0.262
A5U C11G A29G G63A U87G | -1.98
A5U A6G C86A C102A | -3.72
A6U G42U G51A | -5.8
A5U C13G C40U U55A U59A C82G | -2.63
A6U C49U C53U A84C | -0.896
A6G U7G A37G G48U | 0.0457
A5U C70U | -0.781
A6U G44A | -1.02
A6U G44U | -1.52
A6C U9G | -0.665
A6U C40A G60U A105C | -4.4
A6C C82U | -0.547
A5U C13U U78G C82A C104U U109C | -6.49
A6U C11U C28U C34A C73A G110A | 0.315
A6U C12U C72U A83C G127U | -0.0511
A6C G35A | -4.12
A6C A100U | -0.814
A6C C53G G69U | 0.253

Variant | polymerase ribozyme fitness (log ratio)
A5G G57U A100U | -1.5
A6U C53U | 0.192
A6G C101A C115G | -1.96
A5U C40A | -2.19
A6G G47A C53U U59C | -1.37
A6C U78C A100U G120A U131C | -0.187
A6U C22U | -3.04
A5U G51U | -3.03
A6U C73G | -1.46
A5U C11A C115G | -6.5
A6U G48C | -0.598
A6U C12A G48U U106G | -1.45
A6U C98A | -3.74
A6U C12U C80U | -0.107
A6G C11G G17C G36C C97U | -5.22
A5U A18C G57U C72U | -2.48
A5U U38G A74G | -1.15
A6C U78A | 0.00944
A5G U38G G48C G69U C79A | -2.33
A6G C8A U55A | 0.109
A6G C76A C79A G120C | 0.0381
A6U G71U C82G | -0.9
A5U C64U C80A C88U A95U | -4.14
A5U C70G A119G | -0.737

Variant | polymerase ribozyme fitness (log ratio)
A6G C13U C22U G44C | -5.6
A5U C80G | -5.2
A6C G17U U96G C98U C123U | -6.92
A6U G19A | -2.37
A6U G120U | -0.0286
A6U G120C | 1.12
A6U A24G A37U A43C A66U | -5.69
A5U U7G G47A C72A | -0.365
A6U G71U | -0.239
A6U G71A | -0.461
A5U C72G U81C | -1.14
A6C G10C G36U | -2.24
A6U G113U | -2.09
A6C C11U C49A C101A | -2.17
A6G A121C | 2.2
A6G C34A | -2.05
A6U C11A C62G G120A | -2.04
A5G G52U U92C C114G | -5.18
A6C C15G U55G C94G C124G G127A | -3.17
A6G G48U U54A C79U U87A | -4.01
A6C G10A C15A G25A A43U G45C C86G U106G G113U | -7.45
A5U A6G G69U C86A C102A | -2.02
A6G C49G G51U C73G U133A | -2.49

Reference: the RNAGym collection of RNA variant scans (doi:10.1073/pnas.2313332121)
